# Data published in IntAct's records for PubMed 31296862.
# B1: Type IV methyl-directed restriction enzyme EcoKMcrB subunit (Escherichia coli (strain K12)), P15005 (parent)
# chain: MESIQPWIEKFIKQAQQQRSQSTKDYPTSYRNLRVKLSFGYGNFTSIPWFAFLGEGQEASNGIYPVILYYKDFDELVLAYGISDTNEPHAQWQFSSDIPKTIAEYFQATSGVYPKKYGQSYYACSQKVSQGIDYTRFASMLDNIINDYKLIFNSGKSVIPPMSKTESYCLEDALNDLFIPETTIETILKRLTIKKNIILQGPPGVGKTFVARRLAYLLTGEKAPQRVNMVQFHQSYSYEDFIQGYRPNGVGFRRKDGIFYNFCQQAKEQPEKKYIFIIDEINRANLSKVFGEVMMLMEHDKRGENWSVPLTYSENDEERFYVPENVYIIGLMNTADRSLAVVDYALRRRFSFIDIEPGFDTPQFRNFLLNKKAEPSFVESLCQKMNELNQEISKEATILGKGFRIGHSYFCCGLEDGTSPDTQWLNEIVMTDIAPLLEEYFFDDPYKQQKWTNKLLGDS
# partner: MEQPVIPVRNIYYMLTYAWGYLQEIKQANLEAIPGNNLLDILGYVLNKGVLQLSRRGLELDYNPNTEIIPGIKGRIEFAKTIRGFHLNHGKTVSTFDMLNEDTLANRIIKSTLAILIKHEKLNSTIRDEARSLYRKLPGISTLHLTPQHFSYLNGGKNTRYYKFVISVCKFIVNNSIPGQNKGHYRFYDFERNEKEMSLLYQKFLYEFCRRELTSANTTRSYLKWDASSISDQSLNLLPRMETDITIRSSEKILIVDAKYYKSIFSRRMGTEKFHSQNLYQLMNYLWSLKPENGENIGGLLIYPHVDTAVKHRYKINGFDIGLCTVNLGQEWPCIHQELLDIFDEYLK
# Variants of: B1
# Details: with mcrc_ecoli mcrC
row,Variant,effect of a mutation on the interaction
1,E298A,with no effect
2,R348A,disrupting interaction strength
3,R349A,disrupting interaction strength
